The supplement of paper PMC9112550, “Optimization of the antimicrobial peptide Bac7 by deep mutational scanning” (BMC Biology, 2022)

What follows are sequences tested on Escherichia coli TOP10 (assay: shrunken log2 fold change of peptide-encoding DNA abundance (4.5 h post-induction vs induction); higher = less antimicrobial activity (less host growth inhibition)). Conditions: time post-induction: 4.5 h; library: site-saturation at positions 5, 18, 19, 20.
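Note: peptides expressed intracellularly from a pBAD plasmid library in pooled LB shake-flask culture, induced with 0.3% L-arabinose, DNA abundance read by NGS, three biological replicates, DESeq2 with apeglm shrinkage.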

Sequence	shrunken log2 fold change
RRIRHRPPRLPRPRPRPSIKPRP	-0.501
RRIRHRPPRLPRPRPRPSKKPRP	0.0943
RRIRHRPPRLPRPRPRPSMPPRP	-0.0929
RRIRHRPPRLPRPRPRPSNGPRP	-0.605
RRIRHRPPRLPRPRPRPSNMPRP	-1.48
RRIRHRPPRLPRPRPRPSPFPRP	-0.199
RRIRHRPPRLPRPRPRPSPGPRP	-0.051
RRIRHRPPRLPRPRPRPSPVPRP	-0.0462
RRIRHRPPRLPRPRPRPSQNPRP	-0.0324
RRIRHRPPRLPRPRPRPSRKPRP	0.094
RRIRHRPPRLPRPRPRPSTVPRP	0.00256
RRIRHRPPRLPRPRPRPSVPPRP	-0.0518
RRIRHRPPRLPRPRPRPSVQPRP	-0.266
RRIRHRPPRLPRPRPRPSVRPRP	-0.158
RRIRHRPPRLPRPRPRPSVTPRP	-0.453
RRIRHRPPRLPRPRPRPSWAPRP	0.19
RRIRHRPPRLPRPRPRPSWNPRP	-0.264
RRIRHRPPRLPRPRPRPSYNPRP	-0.86
RRIRHRPPRLPRPRPRPSYWPRP	0.0148
RRIRHRPPRLPRPRPRPTANPRP	0.0557
RRIRHRPPRLPRPRPRPTCDPRP	-0.011
RRIRHRPPRLPRPRPRPTCMPRP	-0.184

Sequence	shrunken log2 fold change
RRIRHRPPRLPRPRPRPTCPPRP	0.0464
RRIRHRPPRLPRPRPRPTDSPRP	0.0894
RRIRHRPPRLPRPRPRPTEAPRP	-0.00626
RRIRHRPPRLPRPRPRPTEHPRP	-0.243
RRIRHRPPRLPRPRPRPTFLPRP	-0.0769
RRIRHRPPRLPRPRPRPTGDPRP	0.208
RRIRHRPPRLPRPRPRPTGHPRP	0.173
RRIRHRPPRLPRPRPRPTHFPRP	0.176
RRIRHRPPRLPRPRPRPTICPRP	-0.41
RRIRHRPPRLPRPRPRPTIPPRP	-0.028
RRIRHRPPRLPRPRPRPTKQPRP	-0.0343
RRIRHRPPRLPRPRPRPTLQPRP	-0.0103
RRIRHRPPRLPRPRPRPTLTPRP	-0.188
RRIRHRPPRLPRPRPRPTLVPRP	-0.233
RRIRHRPPRLPRPRPRPTMPPRP	-0.00312
RRIRHRPPRLPRPRPRPTPDPRP	0.134
RRIRHRPPRLPRPRPRPTPQPRP	0.541
RRIRHRPPRLPRPRPRPTPWPRP	0.692
RRIRHRPPRLPRPRPRPTREPRP	0.0175
RRIRHRPPRLPRPRPRPTTCPRP	-0.278
RRIRHRPPRLPRPRPRPTVIPRP	0.0211
RRIRHRPPRLPRPRPRPTVRPRP	0.165

Sequence	shrunken log2 fold change
RRIRHRPPRLPRPRPRPTWWPRP	0.368
RRIRHRPPRLPRPRPRPTWYPRP	-0.674
RRIRHRPPRLPRPRPRPTYKPRP	-0.333
RRIRHRPPRLPRPRPRPVAAPRP	0.202
RRIRHRPPRLPRPRPRPVALPRP	-0.112
RRIRHRPPRLPRPRPRPVATPRP	-0.079
RRIRHRPPRLPRPRPRPVCKPRP	-0.14
RRIRHRPPRLPRPRPRPVDAPRP	0.131
RRIRHRPPRLPRPRPRPVDDPRP	-0.221
RRIRHRPPRLPRPRPRPVHLPRP	-0.0199
RRIRHRPPRLPRPRPRPVIDPRP	-0.395
RRIRHRPPRLPRPRPRPVILPRP	-1.12
RRIRHRPPRLPRPRPRPVIRPRP	0.00766
RRIRHRPPRLPRPRPRPVITPRP	0.0477
RRIRHRPPRLPRPRPRPVKIPRP	-0.0352
RRIRHRPPRLPRPRPRPVKPPRP	0.0296
RRIRHRPPRLPRPRPRPVMMPRP	-0.123
RRIRHRPPRLPRPRPRPVNNPRP	-1.17
RRIRHRPPRLPRPRPRPVPDPRP	-0.526
RRIRHRPPRLPRPRPRPVPEPRP	0.143
RRIRHRPPRLPRPRPRPVPWPRP	0.0803
RRIRHRPPRLPRPRPRPVQHPRP	-0.0639

Sequence	shrunken log2 fold change
RRIRHRPPRLPRPRPRPVTFPRP	0.00537
RRIRHRPPRLPRPRPRPVWDPRP	-0.0821
RRIRHRPPRLPRPRPRPVWNPRP	-0.402
RRIRHRPPRLPRPRPRPWDNPRP	0.0451
RRIRHRPPRLPRPRPRPWEPPRP	-0.0767
RRIRHRPPRLPRPRPRPWGPPRP	-0.0071
RRIRHRPPRLPRPRPRPWGTPRP	-0.44
RRIRHRPPRLPRPRPRPWHDPRP	-0.00088
RRIRHRPPRLPRPRPRPWIDPRP	-0.00448
RRIRHRPPRLPRPRPRPWIGPRP	-0.0136
RRIRHRPPRLPRPRPRPWKLPRP	-0.185
RRIRHRPPRLPRPRPRPWLAPRP	-0.26
RRIRHRPPRLPRPRPRPWLCPRP	0.111
RRIRHRPPRLPRPRPRPWLDPRP	-0.377
RRIRHRPPRLPRPRPRPWLKPRP	-0.185
RRIRHRPPRLPRPRPRPWLPPRP	-0.0823
RRIRHRPPRLPRPRPRPWLVPRP	-0.0872
RRIRHRPPRLPRPRPRPWNMPRP	-0.14
RRIRHRPPRLPRPRPRPWNYPRP	-0.617
RRIRHRPPRLPRPRPRPWRDPRP	-0.154
RRIRHRPPRLPRPRPRPWRWPRP	0.16
RRIRHRPPRLPRPRPRPWTLPRP	-0.00151

Sequence	shrunken log2 fold change
RRIRHRPPRLPRPRPRPWTPPRP	-0.502
RRIRHRPPRLPRPRPRPWVIPRP	0.00302
RRIRHRPPRLPRPRPRPWVYPRP	-0.125
RRIRHRPPRLPRPRPRPWWAPRP	-0.162
RRIRHRPPRLPRPRPRPWWEPRP	-0.015
RRIRHRPPRLPRPRPRPWWGPRP	-0.0666
RRIRHRPPRLPRPRPRPWYAPRP	-0.41
RRIRHRPPRLPRPRPRPYCDPRP	-0.313
RRIRHRPPRLPRPRPRPYCWPRP	-0.352
RRIRHRPPRLPRPRPRPYGTPRP	-1.41
RRIRHRPPRLPRPRPRPYGVPRP	-0.256
RRIRHRPPRLPRPRPRPYGYPRP	-0.22
RRIRHRPPRLPRPRPRPYHCPRP	-0.316
RRIRHRPPRLPRPRPRPYHSPRP	-0.0215
RRIRHRPPRLPRPRPRPYIWPRP	-0.431
RRIRHRPPRLPRPRPRPYKNPRP	-0.646
RRIRHRPPRLPRPRPRPYMMPRP	-3.2
RRIRHRPPRLPRPRPRPYMVPRP	-0.0357
RRIRHRPPRLPRPRPRPYNEPRP	0.0187
RRIRHRPPRLPRPRPRPYNIPRP	-0.244
RRIRHRPPRLPRPRPRPYPCPRP	-0.152
